Article PMC11218781, “The heat shock factor 20-HSF4-cellulose synthase A2 module regulates heat stress tolerance in maize”

How the values were obtained:
ZmHSF20 [1] = biological target: T1, ZmHSF20 (Zea mays, UniProt K7U5Y9 1-318); assay: EMSA; EMSA/Gel-Shift buffer (Beyotime GS009 kit), 4 °C, 1 h; salt and pH not stated; conditions: protein: recombinant; tags: His (pET28a); chain copies: 3; label: biotin; 5' overhang 1 nt on strand 1 as printed (reverse strand lacks the final C)
ZmHSF20 [2] = biological target: T1, ZmHSF20; assay: EMSA; unlabeled probe competes; EMSA/Gel-Shift buffer (Beyotime GS009 kit), 4 °C, 1 h; salt and pH not stated; conditions: protein: recombinant; tags: His (pET28a); chain copies: 3; label: biotin; blunt

T1 sequence (K7U5Y9 entry or part of it): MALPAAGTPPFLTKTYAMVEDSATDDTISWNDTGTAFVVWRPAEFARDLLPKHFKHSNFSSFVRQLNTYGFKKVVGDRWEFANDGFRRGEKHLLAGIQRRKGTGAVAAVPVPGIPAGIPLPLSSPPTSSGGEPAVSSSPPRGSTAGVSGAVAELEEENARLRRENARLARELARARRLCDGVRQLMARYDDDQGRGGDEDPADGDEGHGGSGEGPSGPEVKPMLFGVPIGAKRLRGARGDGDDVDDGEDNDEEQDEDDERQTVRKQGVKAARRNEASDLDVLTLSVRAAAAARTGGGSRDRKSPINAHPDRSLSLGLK

B1: ZmHSF4-P1 probe (dsDNA)
DNA 1: GCCTTCCAGAACCTTCCTTTCCCGAAATAG
DNA 2: CTATTTCGGGAAAGGAAGGTTCTGGAAGG
binding result (ZmHSF20 [1]): binds

B2: ZmCesA2-P2 probe (dsDNA)
DNA 1: ATTTACTACTGAAATTTATAAGGATTTGCA
DNA 2: TGCAAATCCTTATAAATTTCAGTAGTAAAT
binding result (ZmHSF20 [2]): binds
